{"source": "the nanobody polyreactivity screen of Harvey et al. (2022)"}
{"assay": "yeast display, Sf9 membrane polyspecificity reagent, FACS + sequencing; frameworks hold sequencing errors", "summary_of_the_method": "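Sorting gates, low and high (top ~1%), were placed on anti-HA fluorescence to track expression and on streptavidin fluorescence to track reagent binding. A clone's polyreactivity label is taken from the gate it came out of. The reagent was 10% biotinylated, detergent-solubilized Sf9 membrane, applied for 1 hour at 4 °C to galactose-induced yeast display cells.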"}
{"sequence": "QVQLVESGGGLVQAGGSLRLSCAASGRTFNYYAMGWYRQAPGKERELVAAISWGGGRTYYADSVKGRFTISRDNAKNTVYFQMNSLKPEDTAVFDCAARYLQLGLAYYYWGQGTQVTVSS", "polyreactivity (PSR sort gate)": "high polyreactivity"}
{"sequence": "QVQLVESGGGLVQAGGSLRLSCAASGRTFNYYAMGWYRQAPGKERELVAAISWSGTPTYYADSVKGRFTISRDNAKNTVYLQMNSLKPEDTAVYYCAAYLVSYPRGNYIRYDYWGQGTQVTVSS", "polyreactivity (PSR sort gate)": "low polyreactivity"}
{"sequence": "QVQLVESGGGLVQAGGSLRLSCAASGRTFPDNAMGWYRQEPGKERELVAVINWGGTSTYYADSVKGRFTISRDNAKNTFYLQMNSLKPEDTAVYYCAARARYPRVGYNYWGQGTQVTVSS", "polyreactivity (PSR sort gate)": "high polyreactivity"}
{"sequence": "QVQLVESGGGLVQAGGSLRLSCAASGRTFPFYAMGWYRQPPAKERELVAVITWRGSNTYADSVKGRFTISRDNAKNTVYLQMNSLKPEVTAVYYCAADAWRSYGYRAYDYWGQVTQVTVSS", "polyreactivity (PSR sort gate)": "low polyreactivity"}
{"sequence": "QVQLVESGGGLVQAGGSLRLSCAASGRTFPGNAMGWYRQAPGKERELVAAISSRGGSTYYADSVKGRFTISRDNAKYTVYFQMNSLKPEDTALYYCARRYLPYGGYYYWGQGTQVTVSS", "polyreactivity (PSR sort gate)": "high polyreactivity"}
{"sequence": "QVQLVESGGGLVQAGGSLRLSCAASGRTFPGNAMGWYRQAPGKERELVATISSGGTTNYADSVKGRFTISRDNAKTTVYLQMNSLKPEDTAVYYCATDTYHHKADYEYWGKGTQVTVSS", "polyreactivity (PSR sort gate)": "low polyreactivity"}
{"sequence": "QVQLVESGGGLVQAGGSLRLSCAASGRTFPGNAMGWYRQAPGKERELVATISSGGTTYYADSVKGRFTISRDNAKNTVYLQMNSLKPEDTAVYYCATDTYHHKADYEYWGQGTQVSVSS", "polyreactivity (PSR sort gate)": "low polyreactivity"}
{"sequence": "QVQLVESGGGLVQAGGSLRLSCAASGRTFPGYAMGWYRQAPGKERELVAAISSSGGSTYYADSVKGRFTISRDNAKNTVYLQMNSLKPEDTAVYYCNAAYRGRLYSWRYGYDYWGQGTQVTVSS", "polyreactivity (PSR sort gate)": "high polyreactivity"}
{"sequence": "QVQLVESGGGLVQAGGSLRLSCAASGRTFPINTMGWYRQAPGKEREFVAAITLGGRTYYADSVKGRFTISRDNAKNTVYLQMNSLKPEDTAVYYCNARTYVRRPLGYWGQGTQVTVSS", "polyreactivity (PSR sort gate)": "high polyreactivity"}
{"sequence": "QVQLVESGGGLVQAGGSLRLSCAASGRTFPKYAMGWYRQATGKERELVAAISSSGGNTYYADSVKGRFTISRDKAKTTVYLQMNSLTPEDTAVYYCAARLPRGAYYYWGQGTQLTVSS", "polyreactivity (PSR sort gate)": "high polyreactivity"}
{"sequence": "QVQLVESGGGLVQAGGSLRLSCAASGRTFPNVMGWYRQAPGKERELVAAISSSVGSTSYADSVKGRFTISRDNAKNTVYLQMNSLKPEDTAVYYCAARYYYRDWVGIISTYYYWGQGTQVTVSS", "polyreactivity (PSR sort gate)": "high polyreactivity"}
{"sequence": "QVQLVESGGGLVQAGGSLRLSCAASGRTFPPYAMGWYRQAPGKERELVAAISRRAGTTYYADSVKGRFTISRDNAKNTVYLQMNSLKPEDTAVYYCAALTESSSYGYWGQGTQVTVSS", "polyreactivity (PSR sort gate)": "low polyreactivity"}
{"sequence": "QVQLVESGGGLVQAGGSLRLSCAASGRTFPPYAMGWYRQAPGKERELVAAISSDGSTYADSVKGRFTISRDNAKNTVYLQMNSLKPEDTAVYYCAVDYTYSYRKHFGHILYSWGQGTQVTVSS", "polyreactivity (PSR sort gate)": "low polyreactivity"}
{"sequence": "QVQLVESGGGLVQAGGSLRLSCAASGRTFPRYAMGWYRQAPGKERELVAAISGTGGSTYYADSVKGRFTISRDNAKNTVYLQMNSLKPEDTAVYYCAAAFRDGFTRRYGYWGQGTQVTVSS", "polyreactivity (PSR sort gate)": "high polyreactivity"}
{"sequence": "QVQLVESGGGLVQAGGSLRLSCAASGRTFPRYAMGWYRQAPGKERELVAAISVRAGITYYADSVKGRFTISRDNAKNTVYLQMNSLKPEDTAVYYCAKSVRYPASDYWGQGTQVTVSS", "polyreactivity (PSR sort gate)": "low polyreactivity"}
{"sequence": "QVQLVESGGGLVQAGGSLRLSCAASGRTFPSYAMGWYRQAAGKERELVAAITVSGGNTYYADSVKGRFTISRDNAKNTVYLQMNSLKPEDTAVYYCNTASYVSWYVHYYYWGQGTQVTVSS", "polyreactivity (PSR sort gate)": "low polyreactivity"}
{"sequence": "QVQLVESGGGLVQAGGSLRLSCAASGRTFPSYVMGWYRQAPGKERELVAAINNGVSTNYADSVKGRYTISRDNAKNTVYLQMNSLNPEDTADYYCAAEVVAQMNYCGQGTQVTVSS", "polyreactivity (PSR sort gate)": "low polyreactivity"}
{"sequence": "QVQLVESGGGLVQAGGSLRLSCAASGRTFPTNMGWYRQAPGKERELVATITGGGGSTIYADSVKGRFTISRDNAKNTVYLQMNSLKPEDTAVYYCAKTLSPEGVPYDYWGQGTQVTVSS", "polyreactivity (PSR sort gate)": "low polyreactivity"}
{"sequence": "QVQLVESGGGLVQAGGSLRLSCAASGRTFPTYAMGWYRQAPGKERELVATISYNGGRTYYADSVKGRFTISRDNAKNTVYLQMNSLKPEDTAVYDCNAVVYVVGDFDYWGQGTQVTVSS", "polyreactivity (PSR sort gate)": "high polyreactivity"}
{"sequence": "QVQLVESGGGLVQAGGSLRLSCAASGRTFPVNGMGWYRQAPGKERELVAAITGGGSTNYADSVKGRFTISRDNAKNTVYLQMNSLKPEDTAVYYCAAGSYSRYLYSLYFDFDYWGQGTQVTVSS", "polyreactivity (PSR sort gate)": "low polyreactivity"}
{"sequence": "QVQLVESGGGLVQAGGSLRLSCAASGRTFPVYAMGWYRQAPGKEREFVAAISYRTGSTYYADSVKGRFTISRDHAKNTVYLQMNSLKPEDTAVYYCAARVSWYYTFYSWGQGTQVTVSS", "polyreactivity (PSR sort gate)": "high polyreactivity"}
{"sequence": "QVQLVESGGGLVQAGGSLRLSCAASGRTFPYNAMGWYRQAPGKERELVAAITSSGSSTYYADSVKGRFTISRDNAKNTVYLQMNSLKPEDTAVYYCAADSYLIVGSSLVWQGYYYWGQGTQVTVSS", "polyreactivity (PSR sort gate)": "low polyreactivity"}
{"sequence": "QVQLVESGGGLVQAGGSLRLSCAASGRTFPYNAMGWYRQAPGNERELVAGISSGGTTTYADSVKGRFTISRDNAKNTVYLQMNSLKPEVTAVYYCAATVIIFDHSRPGWDDYDYWGQGTQVTVSS", "polyreactivity (PSR sort gate)": "low polyreactivity"}
{"sequence": "QVQLVESGGGLVQAGGSLRLSCAASGRTFPYNFMGWYRQAPGKERELVAGITGSGDSTFYADSVKGRFTISRDNAKNTVYLQMNSLKPEDTAVYYCAARYRTLNDGYNRNYWGQGTQVTVSS", "polyreactivity (PSR sort gate)": "low polyreactivity"}
{"sequence": "QVQLVESGGGLVQAGGSLRLSCAASGRTFPYYAMGWYRQAPGKERELVAAISRRGASTYYADSVKGRFTISRDNAKNTVYLQMNSLKPEDTAVYYCNAVYRGYYSGELDYWGQGTQVTVSS", "polyreactivity (PSR sort gate)": "high polyreactivity"}
{"sequence": "QVQLVESGGGLVQAGGSLRLSCAASGRTFPYYAMGWYRQAPGKERELVAVISSADSTNYADSVKGRFTISRDNAKNTVYLQMNSLKPEDTAVYYCAADAVYYGDDYWGQCTQVTVSS", "polyreactivity (PSR sort gate)": "low polyreactivity"}
{"sequence": "QVQLVESGGGLVQAGGSLRLSCAASGRTFPYYAMGWYRQAPGKERELVAVITSGASTYYADSVKGRFTISRDNAKNTVYLQMNSLKPEDTAVYYCNARYSWKYDYWGQGTQVTVSS", "polyreactivity (PSR sort gate)": "high polyreactivity"}
{"sequence": "QVQLVESGGGLVQAGGSLRLSCAASGRTFPYYAMGWYRQATGKERELVAAITTNDGDTYYADSVKGRFTISRDNAKNTVYLQMNSLKPEDTAVYYCSADSGSTSEYEYWGQGTQVTVSS", "polyreactivity (PSR sort gate)": "low polyreactivity"}
{"sequence": "QVQLVESGGGLVQAGGSLRLSCAASGRTFQGNTMGWYRQAPGKEREFVAAMSSRGGSTYYADSVKGRFTISRDNAKNTVYLQMNRLKPEDTAVYYCDARFSHGYDYWGQGTQVTVSS", "polyreactivity (PSR sort gate)": "high polyreactivity"}
{"sequence": "QVQLVESGGGLVQAGGSLRLSCAASGRTFQGNTMGWYRQAPGKERELVAAITWRGTTTYYADSVKGRFTISRDNAKNTVYVQMNSLKPEDTAVYYCAAGHALHSGDEFGYWGQGTQVTVSS", "polyreactivity (PSR sort gate)": "low polyreactivity"}
{"sequence": "QVQLVESGGGLVQAGGSLRLSCAASGRTFQGYAMGWYRQATGKERELVAAISRSGGRTYYADSVKGRFTISRDNAKNTVYLQMNSLKPEDTAVYYCATDAFRDYGYWGQGTQVTVSS", "polyreactivity (PSR sort gate)": "high polyreactivity"}
{"sequence": "QVQLVESGGGLVQAGGSLRLSCAASGRTFQGYVMGWYRQAPRKERELVAAISRGTSTYYADSVKGRFTISRDNAKYTVYLQMNSLKPEDTAVYYCAADGERRHYWGQGTQVTVSS", "polyreactivity (PSR sort gate)": "low polyreactivity"}
{"sequence": "QVQLVESGGGLVQAGGSLRLSCAASGRTFQLNAMGWYRQAPGKERELFAAISTRGGSTYYADSVKGRFTISRDNAKNTVYLQMNSLKPEDTAVYYCATDPSFSRGYKEGGGYDYWGQGTQVTVSS", "polyreactivity (PSR sort gate)": "high polyreactivity"}
{"sequence": "QVQLVESGGGLVQAGGSLRLSCAASGRTFQRNAMGWYRQAPGKERELVAAISWRGGSTYYADSVKGRFTISRDNAKNTVYLQMNSLKPEDTAVYYCNTYPSQYLWYDYWGQGTQVTVSS", "polyreactivity (PSR sort gate)": "high polyreactivity"}
{"sequence": "QVQLVESGGGLVQAGGSLRLSCAASGRTFQTNAMGWYRQAPGKERELVAAISWSGGRTYYADSVKGRFTISRDNAKNTVYLQMNSLKPEDTAVYYCAARQWYRYKVRFDYWGQGTLVTVSS", "polyreactivity (PSR sort gate)": "high polyreactivity"}
{"sequence": "QVQLVESGGGLVQAGGSLRLSCAASGRTFQTYAMGWYRQAPGKERELVAAISKSGGGTYYADSVKGRFTISRDNAKNTVYLQMNSLKPEDTAVYYCATAGYHYRAWGGRYDYWGQGTQVTVSS", "polyreactivity (PSR sort gate)": "high polyreactivity"}
{"sequence": "QVQLVESGGGLVQAGGSLRLSCAASGRTFQVNAMGWYREAPGKERELVAAISIRSGRTYYADSVKGRFTISRYNAKNTVYLQMNSLKPEDTAVYYCAAYRISVYGVGYWGQGTQVTVSS", "polyreactivity (PSR sort gate)": "high polyreactivity"}
{"sequence": "QVQLVESGGGLVQAGGSLRLSCAASGRTFQVNAMGWYRQAPGKERELVAAISRRGGSTYYADSVKGRFTISRDNAKNTVYLQMNSLKPEDTAVYYCAATASTYYLWRYNYWGQGTQVSVSS", "polyreactivity (PSR sort gate)": "high polyreactivity"}
{"sequence": "QVQLVESGGGLVQAGGSLRLSCAASGRTFQYNAMGWYRQAPGKERELVAAISSSGGSTYYADSVKGRFTISRDNAKNTVYLQMNSLKPEDTAVYYCNAYSQSWNFYGDGDYWGQGTQVTVSS", "polyreactivity (PSR sort gate)": "low polyreactivity"}
{"sequence": "QVQLVESGGGLVQAGGSLRLSCAASGRTFQYYAMGWYRQAPGKERELVAAISWSGASTYYADSVKGRFTISRDNAKNTVYLQMNSLKPEDTAVYYCAVKAGGSRYGYWGQGTHVTVSS", "polyreactivity (PSR sort gate)": "high polyreactivity"}
{"sequence": "QVQLVESGGGLVQAGGSLRLSCAASGRTFRANAMGWYRQAPGKERELVAAISKRGGNTYYADSVKGRFTISRDNAKNTVYLQMNSLKPEDTAVYYCAADFIGRDYDYWGQGTQVTVSS", "polyreactivity (PSR sort gate)": "high polyreactivity"}
{"sequence": "QVQLVESGGGLVQAGGSLRLSCAASGRTFRANAMGWYRQAPGKERELVAAISQRGGNTYYADSVKGRFTISRDKAKNTVYIQMNSLKPEDTAVYYCAADITTYRRGRYEYEYWGQGTQVTVSS", "polyreactivity (PSR sort gate)": "high polyreactivity"}
{"sequence": "QVQLVESGGGLVQAGGSLRLSCAASGRTFRAYVMGWYRQAPGKERELVAAITGDGGSTYYADSVKGRFTISRDNAKNTVYLQMNSLKPEDTAVYYCAAGYVTVYGYYEYWGQGTQVTVSS", "polyreactivity (PSR sort gate)": "high polyreactivity"}
